Measurements reported in paper PMC4661877, “Enhancement of Chaperone Activity of Plant-Specific Thioredoxin through γ-Ray Mediated Conformational Change” (International Journal of Molecular Sciences, 2015).

Biological target: the molecule itself
Experiment: SEC; Superdex 200 10/300 GL, FPLC, 4 °C, 50 mM HEPES pH 8.0, 100 mM NaCl, 0.5 mL/min; size against standard proteins

B1: Arabidopsis thaliana tetratricopeptide domain-containing thioredoxin (AtTDX), non-irradiated (enzyme, UniProt Q8VWG7 1-380, looked up)
chain: MVDAIQVAELRRFVEQLKLNPSILHDPSLVFFKEYLRSLGAQVPKIEKTERDYEDKAETKPSFSPKHDDDDDDIMESDVELDNSDVVEPDNEPPQPMGDPTAEVTDENRDDAQSEKSKAMEAISDGRFDEAIEHLTKAVMLNPTSAILYATRASVFLKVKKPNAAIRDANVALQFNSDSAKGYKSRGMAKAMLGQWEEAAADLHVASKLDYDEEIGTMLKKVEPNAKRIEEHRRKYQRLRKEKELQRAERERRKQQEAQEREAQAALNDGEVISIHSTSELEAKTKAAKKASRLLILYFTATWCGPCRYMSPLYSNLATQHSRVVFLKVDIDKANDVAASWNISSVPTFCFIRDGKEVDKVVGADKGSLEQKIAQHSSSK
notes: AtTDX, Arabidopsis thaliana tetratricopeptide domain-containing thioredoxin; 380 amino acids, 42 kDa; three TPR domains at the amino terminus and a thioredoxin domain at the carboxyl terminus; Mixture of LMW (mainly tetrameric) and HMW forms; also called non-irradiated AtTDX; 0 kGy
Q: How did the “stoichiometry N” value turn out when B1 was run?
A: 4
